From US20020182656

Target: T1, Purified, recombinant sGNK
T1 chain: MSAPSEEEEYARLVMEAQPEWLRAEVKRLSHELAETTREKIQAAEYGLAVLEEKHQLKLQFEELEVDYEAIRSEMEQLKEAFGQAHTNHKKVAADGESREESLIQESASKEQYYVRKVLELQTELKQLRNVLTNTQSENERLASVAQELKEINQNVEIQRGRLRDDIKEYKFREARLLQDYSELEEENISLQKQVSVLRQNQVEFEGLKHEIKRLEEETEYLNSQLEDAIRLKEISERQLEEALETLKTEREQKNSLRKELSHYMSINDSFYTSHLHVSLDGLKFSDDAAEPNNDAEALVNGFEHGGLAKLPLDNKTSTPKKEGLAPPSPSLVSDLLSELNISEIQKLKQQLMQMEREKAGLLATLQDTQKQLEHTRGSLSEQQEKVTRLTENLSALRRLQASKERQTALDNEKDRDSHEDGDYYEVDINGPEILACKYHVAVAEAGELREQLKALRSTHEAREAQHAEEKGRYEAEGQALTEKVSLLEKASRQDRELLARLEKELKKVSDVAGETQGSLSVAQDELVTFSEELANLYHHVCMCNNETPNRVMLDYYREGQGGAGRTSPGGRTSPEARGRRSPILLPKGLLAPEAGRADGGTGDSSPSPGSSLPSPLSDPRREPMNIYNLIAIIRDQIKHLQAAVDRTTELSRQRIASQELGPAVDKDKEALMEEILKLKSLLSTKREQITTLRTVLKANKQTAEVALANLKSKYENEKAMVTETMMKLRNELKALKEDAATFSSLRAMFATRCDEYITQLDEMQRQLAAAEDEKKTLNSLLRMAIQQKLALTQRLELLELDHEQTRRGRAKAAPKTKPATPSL

B1: Human recombinant GNK (hu-rGNK) (protein)
chain: MSVLGEYERHCDSINSDFGSESGGCGDSSPGPSASQGPRAGGGAAEQEELHYIPIRVLGRGAFGEATLYRRTEDDSLVVWKEVDLTRLSEKERRDALNEIVILALLQHDNIIAYYNHFMDNTTLLIELEYCNGGNLYDKILRQKDKLFEEEMVVWYLFQIVSAVSCIHKAGILHRDIKTLNIFLTKANLIKLGDYGLAKKLNSEYSMAETLVGTPYYMSPELCQGVKYNFKSDIWAVGCVIFELLTLKRTFDATNPLNLCVKIVQGIRAMEVDSSQYSLELIQMVHSCLDQDPEQRPTADELLDRPLLRKRRREMEEKVTLLNAPTKRPRSSTVTEAPIAVVTSRTSEVYVWGGGKSTPQKLDVIKSGCSARQVCAGNTHFAVVTVEKELYTWVNMQGGTKLHGQLGHGDKASYRQPKHVEKLQGKAIHQVSCGDDFTVCVTDEGQLYAFGSDYYGCMGVDKVAGPEVLEPMQLNFFLSNPVEQVSCGDNHVVVLTRNKEVYSWGCGEYGRLGLDSEEDYYTPQKVDVPKALIIVAVQCGCDGTFLLTQSGKVLACGLNEFNKLGLNQCMSGIINHEAYHEVPYTTSFTLAKQLSFYKIRTIAPGKTHTAAIDERGRLLTFGCNKCGQLGVGNYKKRLGINLLGGPLGGKQVIRVSCGDEFTIAATDDNHIFAWGNGGNGRLAMTPTERPHGSDICTSWPRPIFGSLHHVPDLSCRGWHTILIVEKVLNSKTIRSNSSGLSIGTVFQSSSPGGGGGGGGGEEEDSQQESETPDPSGGFRGTMEADRGMEGLISPTEAMGNSNGASSSCPGWLRKELENAEFIPMPDSPSPLSAAFSESEKDTLPYEELQGLKVASEAPLEHKPQVEASSPRLNPAVTCAGKGTPLTPPACACSSLQVEVERLQGLVLKCLAEQQKLQQENLQIFTQLQKLNKKLEGGQQVGMHSKGTQTAKEEMEMDPKPDLDSDSWCLLGTDSCRPSL
phosphorylation of sGNK by GNK (kinase assay with gamma-32P-ATP, SDS-PAGE, Phosphoimager): GNK-mediated phosphorylation of sGNK was demonstrated using the kinase assay described above, except purified, recombinant sGNK was added to the kinase reaction mixture
